Assay results taken from patent US20160152733A1.
Where a chain is given by its changes, count along the chain named.

B1: Fab variant "muCD45R0" (chimeric Fab: variable regions of parental murine CD45R0 antibody clone UCHL1, human constant regions) (Fab, V domains shown, not shown: small tags and cut ends)
VH: QITLKESGPGILQPSQTLSLTCSFSGFSLTTYGIGVGWIRQPPGKGLEWLTHIWWNDNKYYNTALRSRLTISKDSSNNQVLLKIANVDTADTATYYCLYGYTYWGQGTLVTVSA
VL: DVVMTQTPLSLPVSLGDQASISCRSSQSLLYSNGNTYLHWYLQKPGQSPKLLIYKLSNRFSGVPDRFSGSGSGTDFTLKISRVEAEDLGVYFCSQSTHVPWTFGGGTKLEIKR
B2: Fab variant "huCD45R0_v3" (humanized, germline IGHV2-5*01 / IGKV2-30*01 framework with backmutations) (Fab, V domains shown, not shown: small tags and cut ends)
VH: QITLKESGPTLVKPTQTLTLTCTFSGFSLTTYGIGVGWIRQPPGKALEWLTHIWWNDNKYYSPSLKSRLTITKDSSKNQVVLTMTNMDPVDTATYYCLYGYTYWGQGTLVTVSA
VL: B1 VL with S14T, D17Q, Q18P, L42Q, K44R, K50R, L88V, F92Y
B3: Fab variant "huCD45R0_v1" (humanized, 4D5 framework with backmutations) (Fab, V domains shown, not shown: small tags and cut ends)
VH: EVQLVESGGGLVQPGGSLRLSCAFSGFSLTTYGIGVGWIRQAPGKGLEWLTHIWWNDNKYYADSVKGRFTISKDSSKNTVYLQMNSLRAEDTAVYYCLYGYTYWGQGTLVTVSS
VL: DIQMTQSPSSLSASVGDRVTITCRSSQSLLYSNGNTYLHWYQQKPGKAPKLLIYKLSNRFSGVPSRFSGSRSGTDFTLTISSLQPEDFATYYCSQSTHVPWTFGQGTKVEIKR
B4: Fab variant "huCD45R0_v2" (humanized, 4D5 framework with extended backmutations) (Fab, V domains shown, not shown: small tags and cut ends)
VH: B3 VH with E1Q, V2I, K66R
VL: B3 VL with I2V, Q3V, S7T, T22S, S65D, R71G

Key:
[1] = target: human CD45R0 antigen (splice variant/isoform CD45R0 of CD45 antigen, PTPRC), cell-bound (human) (UniProt P08575); test: flow cytometry on human PBMC, from max. MFI; muCD45R0 set to 100%
[2] = target: human CD45R0 antigen (splice variant/isoform CD45R0 of CD45 antigen, PTPRC), cell-bound (human) (UniProt P08575); test: flow cytometry, biotinylated Fab 5 µg/mL on human CD3+ CD45RA- T cells, donor 2 (text: anti-Biotin-PE; table head: anti-HIS-PE)
[3] = target: human CD45R0 antigen (splice variant/isoform CD45R0 of CD45 antigen, PTPRC), cell-bound (human) (UniProt P08575); test: flow cytometry on human T cells, from median fluorescence at 5 µg/mL; muCD45R0 set to 100%
[4] = target: human CD45R0 antigen (splice variant/isoform CD45R0 of CD45 antigen, PTPRC), cell-bound (human) (UniProt P08575); test: flow cytometry, human PBMC gated on living CD45RA-negative WBC, Fab 5 µg/mL + anti-His-PE
[5] = target: human CD45R0 antigen (splice variant/isoform CD45R0 of CD45 antigen, PTPRC), cell-bound (human) (UniProt P08575); test: flow cytometry on human PBMC, from median fluorescence at 5 µg/mL; muCD45R0 set to 100%
[6] = target: human CD45R0 antigen (splice variant/isoform CD45R0 of CD45 antigen, PTPRC), cell-bound (human) (UniProt P08575); test: flow cytometry, indirect staining of human PBMC, Fab 1-10 µg/mL + anti-His-PE
[7] = target: human CD45R0 antigen (splice variant/isoform CD45R0 of CD45 antigen, PTPRC), cell-bound (human) (UniProt P08575); test: flow cytometry, biotinylated Fab 5 µg/mL on human CD3+ CD45RA- T cells, donor 1 (text: anti-Biotin-PE; table head: anti-HIS-PE)
[8] = target: human CD45R0 antigen (splice variant/isoform CD45R0 of CD45 antigen, PTPRC), cell-bound (human) (UniProt P08575); test: flow cytometry on human PBMC, from median fluorescence at 5 µg/mL; relative to muCD45R0 = 100%
[9] = target: human CD45R0 antigen (splice variant/isoform CD45R0 of CD45 antigen, PTPRC), cell-bound (human) (UniProt P08575); test: flow cytometry on human PBMC, from max. MFI; relative to muCD45R0 = 100%

Binder	relative affinity (%) [1]	median fluorescence, donor 2 [2]	relative affinity (%) [3]	median fluorescence (anti-HIS PE) [4]	relative affinity (%) [5]	max. mean fluorescence (anti-HIS-PE) [6]	median fluorescence, donor 1 [7]	relative affinity (%) [8]	relative affinity (%) [9]
B1	100%	21	100%	26	100%	37	8	–	–
B2	–	24	–	43	–	–	9.5	165%	–
B3	–	–	–	–	–	3	–	–	8%
B4	–	–	–	8	–	–	–	31%	–
